Biological target: Homo sapiens selenoprotein S U188C (human) (UniProt Q9BQE4)
Assay: SEC

Substance: Homo sapiens selenoprotein S U188C (from UniProt Q9BQE4 1-189) (natural protein)
- stoichiometry N: 2

— PMC3483405
